# Source: publication PMC10774444, “BPG4 regulates chloroplast development and homeostasis by suppressing GLK transcription factors and involving light and brassinosteroid signaling”
# T1: GST-GLK1 (Arabidopsis thaliana, UniProt Q9SIV3 1-420)
# T1 sequence: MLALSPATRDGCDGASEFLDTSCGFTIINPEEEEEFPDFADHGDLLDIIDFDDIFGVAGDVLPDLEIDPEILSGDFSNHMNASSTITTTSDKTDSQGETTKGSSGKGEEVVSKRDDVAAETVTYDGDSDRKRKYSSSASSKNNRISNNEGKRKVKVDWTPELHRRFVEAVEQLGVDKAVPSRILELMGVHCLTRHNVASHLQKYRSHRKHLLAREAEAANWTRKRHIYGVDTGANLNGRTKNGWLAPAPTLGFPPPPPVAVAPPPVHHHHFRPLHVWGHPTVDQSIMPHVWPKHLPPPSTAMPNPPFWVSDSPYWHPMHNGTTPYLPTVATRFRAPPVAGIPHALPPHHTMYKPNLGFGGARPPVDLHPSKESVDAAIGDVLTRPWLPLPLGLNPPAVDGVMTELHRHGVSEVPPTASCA
# B1: CAO-probe (dsDNA)
# DNA 1: TTTAGATCCCATGATTCTCAACACGACTGA
# DNA 2: TCAGTCGTGTTGAGAATCATGGGATCTAAA
# Target: T1, GST-GLK1
# Experiment: EMSA; without BPG4; GLK1 EMSA: 10 mM Tris-HCl pH 8.0, 50 mM KCl, 10 mM EDTA, 2.5% glycerol, 1 mM DTT, 0.05 ug/ul poly(dI-dC), 5 pmol probe; proteins preincubated on ice 5 min then
# Settings: protein: recombinant; tags: N-term GST (pGEX-6P-3); label: FAM; blunt
binder,measurement,value
B1,binding result,binds
